Experimental data taken from publication PMC8904598, “Structural snapshots of V/A-ATPase reveal the rotary catalytic mechanism of rotary ATPases” (Nature Communications, 2022).

Tested on: T1, Nc1ncnc2c1ncn2[C@@H]1O[C@H](COP(=O)(O)OP(=O)(O)OP(=O)(O)O)[C@@H](O)[C@H]1O
T1 construct: holo V/A-ATPase (A3B3D1F1 + E2G2d1a1c12), C-terminal His3 tag on each c subunit, purified from T. thermophilus membranes, nucleotide removed by EDTA/phosphate dialysis, MSP1E3D1/DMPC nanodiscs; models cover V1EG; with V-type ATP synthase subunit D; V-type ATP synthase subunit F; V-type ATP synthase subunit E; V-type ATP synthase subunit G; V-type ATP synthase subunit C; V-type ATP synthase subunit I; V-type ATP synthase subunit K
Assay: purified protein
Type: biochemical, Thermus thermophilus
Conditions: nanodisc enzyme, ATP-Mg, 50 mM Tris-HCl pH 8.0, 100 mM KCl, 25 °C, ATP-regenerating system, all rows carry A/S232A, A/T235S

Tth V/A-ATPase (A/S232A, T235S; TSSA mutant), nanodisc-incorporated, nucleotide-free (Thermus thermophilus HB8; Q56403:S232A/Q56403:T235S)
Km: 394 µM
kcat: 22 s⁻¹
